Where no end group is shown, it is not given here.

For orientation: Kd means the concentration at which binding is half-saturated. As usually defined, the koff is the first-order rate constant of dissociation. Higher therefore signals fast dissociation. A word on the kon: it is a measure of how fast the partners come together. A lower kon goes with slow association.

Data set [1] deals with T1, BKB2 receptor (Homo sapiens, UniProt P30411).
T1 sequence (P30411 1-391): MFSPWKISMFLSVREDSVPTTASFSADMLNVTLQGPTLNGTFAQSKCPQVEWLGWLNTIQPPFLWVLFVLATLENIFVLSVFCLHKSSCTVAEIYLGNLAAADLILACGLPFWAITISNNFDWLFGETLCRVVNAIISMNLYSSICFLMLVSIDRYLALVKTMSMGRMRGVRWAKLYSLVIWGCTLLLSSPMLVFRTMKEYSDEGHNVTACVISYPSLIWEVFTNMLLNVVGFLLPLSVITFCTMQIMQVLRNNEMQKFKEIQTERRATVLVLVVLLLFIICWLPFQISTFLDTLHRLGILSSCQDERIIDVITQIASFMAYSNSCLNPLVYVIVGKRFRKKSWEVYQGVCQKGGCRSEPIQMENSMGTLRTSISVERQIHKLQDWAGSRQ
The data set can be described thus: Intracellular calcium release in CHO-K1/B2/Gα15 cells (FLIPR Calcium 4). In kind it is cell-based. On the set-up: expressed in transfected cells. To be noted: bradykinin positive control (10 uM in the method); mean+/−SD, n=2.
Method: A stable CHO cell line expressing the human BKB2 receptor (CHO-K1/B2/Gα15) was used for the screening. The antibody was diluted to five different concentrations, from 0.5 mg/ml, via three-fold dilution increments, and screened on duplicate cell samples.
Expression and functional activity of the human BKB2 receptor in the CHO-K1/B2/Gα15 cell line were validated by exposure to the positive control, bradykinin.
To perform the assay, CHO-K1/B2/Gα15 cells were seeded in wells of a 384-well black-wall, clear-bottom plate at a density of 20,000 cells per well in 20 μL of growth medium 20 hours prior to the day of experiment, and maintained at 37° C./5% CO2. 20 μL of dye-loading solution (FLIPR™ Calcium 4 assay kit, Molecular Devices, Sunnyvale, Calif.) was added into each well and the plate was placed into a 37° C. incubator for 60 minutes, followed by 15 minutes at room temperature. The total reading time was 120 sec. After a 20-second reading to establish the baseline, the antibody or agonist were added to selected wells and the fluorescence signal was captured for another 100 seconds (21 s to 120 s). Readings from wells containing cells stimulated with assay buffer (0.03% Na3N PBS) containing 1% DMSO were chosen as the background values for screening; readings from wells containing cells stimulated with the agonist bradykinin (at 10 uM) were chosen as the positive control.

Data set [2] deals with human bradykinin B2 receptor (BKB2R) (human) (UniProt P30411). The data set can be described thus: cell-based or functional assay.
The conditions of data set [3]: cited from earlier work.
Data set [4] has as its target T1, BKB2 receptor. To be noted: BKB2 receptor agonist; cited from earlier work.
Data set [5] concerns PC-3. The data set can be described thus: MTT Cell Proliferation Assay, PC-3. In kind it is cell-based, human. To be noted: 120 hours of exposure. The source says: (§1) This Example describes characterization of the cytotoxic activity of herein described anti-BKB2R monoclonal antibodies against a panel of cancer cell lines. BxPC-3 is a human adenocarcinoma cell line originally isolated from the pancreas (pancreatic cancer) (ATCC # CRL-1687; Tan et al., Cancer Invest. 4: 15-23, 1986. PubMed: 3754176). MV-4-11 is a human biphenotypic B myelomonocytic leukemia (mixed-lineage leukemia, MLL-AF4) cell line originally isolated from the peripheral blood (ATCC # CRL-959; Lange et al., Blood 70: 192-199, 1987. PubMed: 3496132). Hep G2 is a human hepatocellular carcinoma cell line isolated from the liver (liver cancer) (ATCC # HB-8065; Aden et al., Nature 282: 615-616, 1979. PubMed: 233137). RS4;11 is a human acute lymphoblastic leukemia (mixed-lineage leukemia, MLL-AF4) cell line isolated from the bone marrow (ATTC # CRL-1873) Stong et al., Blood 65: 21-31, 1985. PubMed: 3917311). HT-29 is a human colorectal adenocarcinoma (ATTC # HTB-38) cell line isolated from the colon (colon cancer). Fogh et al., J. Natl. Cancer Inst. 58: 209-214, 1977. PubMed: 833871). NUGC-4 is a human stomach carcinoma isolated from the stomach paragastiric lymph node (JCRB # JCRB0834; Akiyama et al., Jpn. J. Surg., 18: 438-446, 1988). […]
(§2) The anti-proliferative activity of test compounds against the indicated cell lines was evaluated in vitro using the ATCC's MTT Cell Proliferation Assay (Catalog No. 30-1010K). After the 120 hour incubation with drug (e.g., anti-BKB2R mAb or cisplatin), cell proliferation was measured by addition of MTT reagent to each well and incubation for an additional 4 hrs. […] Optical absorbance (570 nm) of the test wells was measured and then quantitated relative to control wells that received no drug. Results were expressed as percent inhibition versus compound concentration and graphed, as shown in FIGS. 19-25, for cell lines BxPC-3, MV-4;11, HepG2, RS-4;11, HT-29, NUGC-4, and PC-3, respectively.

Data set [6] concerns HT-29. The data set can be described thus: MTT Cell Proliferation Assay, HT-29. In kind it is cell-based, human. To be noted: 120 hours of exposure.
From the text: as §1, §2

Data set [7] concerns BxPC-3. The data set can be described thus: MTT Cell Proliferation Assay, BxPC-3. In kind it is cell-based, human. The conditions noted are these: 120 hours of exposure.
From the text: as §1, §2

The subject of data set [8] is Hep G2. The data set can be described thus: MTT Cell Proliferation Assay, Hep G2. In kind it is cell-based, human. The conditions noted are these: 120 hours of exposure.
From the text: as §1, §2

Data set [9] deals with MV-4-11. Briefly: MTT Cell Proliferation Assay, MV-4-11. In kind it is cell-based, human. The conditions noted are these: 120 hours of exposure.
From the text: as §1, §2

For data set [10], the system named is RS-4;11. The data set can be described thus: MTT Cell Proliferation Assay, RS-4;11. In kind it is cell-based, human. To be noted: 120 hours of exposure.
From the text: as §1, §2

The subject of data set [11] is NUGC-4. Briefly: MTT Cell Proliferation Assay, NUGC-4. In kind it is cell-based, human. To be noted: 120 hours of exposure.
From the text: as §1, §2

The target in data set [12] is T2, human BKB2R-derived epitope peptide (SEQ ID NO:73), PEG-biotin (human, also: PEG-biotin, site not given here).
T2 construct: also called immunogenic human BKB2R peptide fragment
T2 peptide: KEYSDEGHNVTAC
Briefly: BLI (Octet), peptide-PEG-biotin on streptavidin sensor, antibody 500 nM. The procedure, abridged:
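Streptavidin biosensors loaded with biotin-PEG peptide at 50 μg/ml; antibodies in PBS-based kinetic buffer pH 7.4 with BSA and Tween at 25° C, 1:2 serial dilutions from 500 nM for humanized antibodies. Association and dissociation 500 s each; on rate, off rate and affinity fitted by instrument software, each concentration in duplicate.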
For orientation: BLI is a label-free optical method that tracks binding on a fibre tip over time.

Data set [13] has as its target T2, human BKB2R-derived epitope peptide …. Briefly: BLI (Octet), peptide-PEG-biotin on streptavidin sensor, antibody 250 nM. As for the experimental part:
(§3) For the Octet study, antibodies were analyzed by kinetic titration of the antibodies. Antibodies were prepared in kinetic buffer (0.001 M phosphate buffered saline (NaCl 0.0138 M; KCl-0.00027 M); pH 7.4, at 25° C., 0.1 mg/ml BSA, 0.002% Tween and 0.005% Sodium Azide) followed by 1:2 serial dilutions.
(§4) Sensor Prep: Streptavidin biosensors (FortéBio Inc, Menlo Park, Calif.) were coated by incubation in a solution containing a peptide ([…]-PEG-biotin) (Biosyn, Lewisville, Tex.) at 50 μg/ml (300 seconds/1000 rpm shaking). 96 well half-volume plates were used for testing. 90 μl of sample was plated per well. Sensors were allowed to equilibrate to baseline in kinetic buffer (60 seconds/1000 rpm). The sensors were then placed into the various antibody dilutions to allow binding (association) to the probe for 500 seconds/1000 rpm, and measurements were taken. The sensors were then moved into kinetic buffer without antibody for dissociation (500 seconds/1000 rpm), and measurements were taken. Octet system software calculated kinetic constants for on rate/off rate/affinity.
(§5) For test humanized monoclonal antibodies, the highest concentration used was 500 nM followed by 1:2 dilutions. Each concentration was tested twice. The HC and LC represented the mouse original 5F12G1 VH and VL sequences.

The target is the same in data set [14]. The data set can be described thus: BLI (Octet), peptide-PEG-biotin on streptavidin sensor, antibody 500 nM; antibody 500 nM (the 250 nM row r17 gives 4.41E-07 M). As for the experimental part: as §3, §4, §5
The target is the same in data set [15]. The data set can be described thus: BLI (Octet), peptide-PEG-biotin on streptavidin sensor, antibody 833 nM.
For data set [16] the target is unchanged. Briefly: BLI (Octet), peptide-PEG-biotin on streptavidin sensor, antibody 3333 nM.
Data set [17] shares this target. The data set can be described thus: BLI (Octet), peptide-PEG-biotin on streptavidin sensor, antibody 1000 nM.
The target is the same in data set [18]. The data set can be described thus: BLI (Octet), peptide-PEG-biotin on streptavidin sensor, antibody 1667 nM.
The target is the same in data set [19]. Briefly: BLI (Octet), peptide-PEG-biotin on streptavidin sensor, antibody 3333 nM; antibody 3333 nM row; the same constants are printed for all four ab 404 concentrations.

With RPPGFSPFR [bradykinin], in [1], the percentage of activation is on record as 93.1+/−5.7%.
On to “bradykinin (from UniProt P01042 381-389) (peptide)”, for which, in data set [2], the ED50 (intracellular calcium release, FLIPR, CHO-K1/B2/Gα15 cells) amounted to 0.95 nm/l and the percentage of activation (intracellular calcium release, FLIPR, CHO-K1/B2/Gα15 cells) stood at 93.1%.
In the case of kallidin, in data set [3], the “short lived, in vivo” value was about 30 s. The Kd in data set [4] was about 0.89 nM.
In the case of `N.N.[Cl][Pt][Cl]` [Cisplatin, cisplatin], the “EC 50 Values (ng/ml) PC-3” value in data set [5] turned out to be 753 ng/mL. The EC50 in data set [5] (read-out: EC 50 PC-3, value in brackets) is 2500 nM; in [6] (read-out: EC 50 HT-29, value in brackets) it was 2300 nM; in data set [7] (read-out: EC 50 BxPC-3, value in brackets) it was 700 nM; in data set [8] (read-out: EC 50 Hep G2, value in brackets), 800 nM; in [9] (read-out: EC 50 MV-4-11, value in brackets) it was 1200 nM; in [10] (read-out: EC 50 RS-4;11, value in brackets), 1100 nM. In addition, the EC50 in data set [11] (read-out: EC 50 NUGC-4, value in brackets) worked out at 4100 nM. In addition, in data set [6], the “EC 50 Values (ng/ml) HT-29” value was 698 ng/mL. Moreover, in [7], the “EC 50 Values (ng/ml) BxPC-3” value is 204 ng/mL. Further, the “EC 50 Values (ng/ml) Hep G2” value in data set [8] turned out to be 239 ng/mL. Moreover, in data set [9], the “EC 50 Values (ng/ml) MV-4-11” value was found to be 347 ng/mL. Further, the “EC 50 Values (ng/ml) RS-4;11” value in data set [10] turned out to be 344 ng/mL. Further, in [11], the “EC 50 Values (ng/ml) NUGC-4” value worked out at 1200 ng/mL.

B1: humanized anti-BKB2R antibody L1/H1 (antibody, human IgG2, kappa, V domains shown)
VH: EVQLVESGGGLVQPGGSLRLSCAASGFTFSDYWMSWVRQAPGKGLEWVAEIRLKSDNYATHYAESVKGRFTISRDNAKNSLYLQMNSLRAEDTAVYYCTRDYYAMEYWGQGTLVTVSS
VL: DIVMTQSPLSLPVTPGEPASISCRSSQTIVHSNGKTYLEWYLQKPGQSPQLLIYKVSNRFSGVPDRFSGSGSGTDFTLKISRVEAEDVGVYYCFQASHVPYTFGQGTKLEIKR
notes: also called H1/L1
B1: in data set [12], the “Max Response” value was 0.216, the dissociation rate constant (koff) was 0.942 s⁻¹ and the on-rate (kon) came to 404000 M⁻¹ s⁻¹. Besides, in data set [13], the affinity, expressed as Kd, was 441 nM; the “Max Response” value worked out at 0.286; the koff amounted to 0.701 s⁻¹; the kon is 1.59e+06 M⁻¹ s⁻¹. Moreover, binding in [14] was put at a Kd of 2330 nM.

B2: murine monoclonal anti-BKB2R antibody 5F12G1 (antibody, IgG2b, V domains shown)
VH: EVKLEESGGGLVQPGGSMKLSCVVSGFTFSDYWMSWVRHSPEMGLEWVAEIRLKSDNYATHYAESVKGRFTISRDDSKSRLYLQINSLRGEDTGIYYCTRDYYAMEYWGQGTSVTVSS
VL: DVVMTQTPLSLPVSLGDQASISCRSSQTIVHSNGKTYLEWYLQKPGQSPKLLIYKVSNRFSGVPDRFSGSGSGTEFTLKISRVETEDLGVYYCFQASHVPYTFGGGTKLEIK
notes: also called F512G1
Regarding B2, the Kd in [15], in data set [17], in data set [18] and in data set [19] was 462 nM in each case. Besides, the dissociation rate constant (koff) in data set [15], in data set [16], in [17] and in [18] was 0.00109 s⁻¹ throughout. Moreover, the kon in data set [15], in data set [16], in data set [17] and in [18] was 2350 M⁻¹ s⁻¹ in each case.
